{"source": "paper doi:10.1101/833699", "about": "(bioRxiv, 2019)", "proteins": {"B1": {"name": "ΔRBD2-CDTb (residues 212-751), CDTb construct that lacks the C-terminal receptor binding domain 2 (domain or fragment)", "chain": "SDWEDEDLDTDNDNIPDSYERNGYTIKDLIAVKWEDSFAEQGYKKYVSNYLESNTAGDPYTDYEKASGSFDKAIKTEARDPLVAAYPIVGVGMEKLIISTNEHASTDQGKTVSRATTNSKTESNTAGVSVNVGYQNGFTANVTTNYSHTTDNSTAVQDSNGESWNTGLSINKGESAYINANVRYYNTGTAPMYKVTPTTNLVLDGDTLSTIKAQENQIGNNLSPGDTYPKKGLSPLALNTMDQFSSRLIPINYDQLKKLDAGKQIKLETTQVSGNFGTKNSSGQIVTEGNSWSDYISQIDSISASIILDTENESYERRVTAKNLQDPEDKTPELTIGEAIEKAFGATKKDGLLYFNDIPIDESCVELIFDDNTANKIKDSLKTLSDKKIYNVKLERGMNILIKTPTYFTNFDDYNNYPSTWSNVNTTNQDGLQGSANKLNGETKIKIPMSELKPYKRYVFSGYSKDPLTSNSIIVKIKAKEEKTDYLVPEQGYTKFSYEFETTEKDSSNIEITLIGSGTTYLDNLSITELNSTPEILDEP"}, "B2": {"name": "activated CDTb (aCDTb; residues 212-876), cell-binding and pore-forming component of the C. difficile binary toxin (CDT) (domain or fragment)", "chain": "SDWEDEDLDTDNDNIPDSYERNGYTIKDLIAVKWEDSFAEQGYKKYVSNYLESNTAGDPYTDYEKASGSFDKAIKTEARDPLVAAYPIVGVGMEKLIISTNEHASTDQGKTVSRATTNSKTESNTAGVSVNVGYQNGFTANVTTNYSHTTDNSTAVQDSNGESWNTGLSINKGESAYINANVRYYNTGTAPMYKVTPTTNLVLDGDTLSTIKAQENQIGNNLSPGDTYPKKGLSPLALNTMDQFSSRLIPINYDQLKKLDAGKQIKLETTQVSGNFGTKNSSGQIVTEGNSWSDYISQIDSISASIILDTENESYERRVTAKNLQDPEDKTPELTIGEAIEKAFGATKKDGLLYFNDIPIDESCVELIFDDNTANKIKDSLKTLSDKKIYNVKLERGMNILIKTPTYFTNFDDYNNYPSTWSNVNTTNQDGLQGSANKLNGETKIKIPMSELKPYKRYVFSGYSKDPLTSNSIIVKIKAKEEKTDYLVPEQGYTKFSYEFETTEKDSSNIEITLIGSGTTYLDNLSITELNSTPEILDEPEVKIPTDQEIMDAHKIYFADLNFNPSTGNTYINGMYFAPTQTNKEALDYIQKYRVEATLQYSGFKDIGTKDKEMRNYLGDPNQPKTNYVNLRSYFTGGENIMTYKKLRIYAITPDDRELLVLSVD"}}, "key": {"SEC-MALS": {"target": "the molecule itself", "experiment": "SEC-MALS"}, "AUC + SEC-MALS": {"target": "the molecule itself", "experiment": "AUC + SEC-MALS"}}}
{"protein": "B1", "values": [{"measurement": "stoichiometry N", "setting": "SEC-MALS", "value": 7}]}
{"protein": "B2", "values": [{"measurement": "stoichiometry N", "setting": "AUC + SEC-MALS", "value": 14}]}
